Tests used:
[1] = biological target: F protein of RSV B/Washington virus (respiratory syncytial virus B, …); test: cell-based or functional assay
[2] = biological target: F protein of hMPV B virus (human metapneumovirus subtype B); test: cell-based or functional assay
[3] = biological target: F protein of hMPV A virus (human metapneumovirus subtype A); test: cell-based or functional assay
[4] = biological target: unprocessed hMPV PreF G264R/Q434H (human metapneumovirus strain B2); test: ELISA; Ni-NTA plate coated with Expi293 supernatant containing the His-tagged antigen; antibody titrated; OD450
V231A = biological target: T1, V231A; test: as above
T1 construct: also called unprocessed hMPV PreF V231A

[5] = biological target: unprocessed hMPV PreF V231A/G264R (human metapneumovirus strain B2); test: as above
Q434H = biological target: T2, Q434H; test: as above
T2 construct: also called unprocessed hMPV PreF Q434H

[6] = biological target: unprocessed hMPV PreF G264R (human metapneumovirus strain B2); test: as above
[7] = biological target: unprocessed hMPV PreF K138Q (human metapneumovirus strain B2); test: as above
[8] = biological target: T3, unprocessed hMPV PreF trimeric antigen (human metapneumovirus strain B2); test: as above
T3 construct: also called unprocessed hMPV WT PreF trimer; hMPV WT trimer

A249Y = biological target: T4, A249Y; test: ELISA on supernatant of cells transiently transfected with the MPV-F construct; antibody titrated; OD450
T4 construct: also called MPV-F A249Y

R198A = biological target: T5, R198A; test: as above
T5 construct: also called MPV-F R198A

N202A = biological target: T6, N202A; test: as above
T6 construct: also called MPV-F N202A

MPV-F (Example 7) = biological target: T7, MPV-F (Example 7) (human metapneumovirus, UniProt Q6WB98 19-489); test: as above
T7 construct: also called hMPV F monomer

L219Y = biological target: T8, L219Y; test: as above
T8 construct: also called MPV-F L219Y

A216Y = biological target: T9, A216Y; test: as above
T9 construct: also called MPV-F A216Y

N210A = biological target: T10, N210A; test: as above
T10 construct: also called MPV-F N210A

R329A = biological target: T11, R329A; test: as above
T11 construct: also called MPV-F R329A

R253A = biological target: T12, R253A; test: as above
T12 construct: also called MPV-F R253A

D209Y = biological target: T13, D209Y; test: as above
T13 construct: also called MPV-F D209Y

B1: M2D2 (antibody, V domains shown)
VH: QVQLVQSGAEVKKPGASVKVSCKASGYNFDNYYMSWVRQAPGQGLEWLGIIDPSGGRISYAPKFQGRVTLTRDTSTSTVYMELRGLRFEDTALYYCARLEATHEGPWGQGTLVTVSS
VL: QSVLTQPPSASGTPGQRVTISCSGSNSNIGSSTVNWYQQLPGTAPKLLIYSDNHRPSGVPDRFSGSRSGTSASLVISGLHSEDEADYYCGTWDDGLNGPYVFGTGTKVTVL
notes: IgG
- PRNT IC50 [1]: 0.0039 µg/mL
- PRNT IC50 [2]: 0.0584 µg/mL
- PRNT IC50 [3]: 0.0296 µg/mL
- binding result [4]: binds
- EC50 (read off the curve) (V231A): ~0.006 µg/mL
- binding result [5]: binds
- EC50 (read off the curve) (Q434H): ~0.01 µg/mL
- binding result [6]: binds
- EC50 (read off the curve) [7]: ~0.006 µg/mL
- EC50 (read off the curve) [8]: ~0.004 µg/mL
- EC50 (read off the curve) (A249Y): ~0.05 µg/mL
- EC50 (read off the curve) (R198A): ~0.02 µg/mL
- EC50 (read off the curve) (N202A): ~0.03 µg/mL
- EC50 (read off the curve) (MPV-F (Example 7)): ~0.02 µg/mL
- EC50 (read off the curve) (L219Y): ~0.05 µg/mL
- EC50 (read off the curve) (A216Y): ~0.04 µg/mL
- EC50 (read off the curve) (N210A): ~0.02 µg/mL
- EC50 (read off the curve) (R329A): ~0.03 µg/mL
- EC50 (read off the curve) (R253A): ~0.04 µg/mL
- EC50 (read off the curve) (D209Y): ~0.04 µg/mL

— patent US20240327502A1 (Merck Sharp & Dohme, published 2024)
